Values belong to the binder of their own block, whether it stands above or below them.
Columns and labels:
[1] = target: T1, FKBP51 (UniProt Q13451 1-457); assay: NMR titration
T1 sequence: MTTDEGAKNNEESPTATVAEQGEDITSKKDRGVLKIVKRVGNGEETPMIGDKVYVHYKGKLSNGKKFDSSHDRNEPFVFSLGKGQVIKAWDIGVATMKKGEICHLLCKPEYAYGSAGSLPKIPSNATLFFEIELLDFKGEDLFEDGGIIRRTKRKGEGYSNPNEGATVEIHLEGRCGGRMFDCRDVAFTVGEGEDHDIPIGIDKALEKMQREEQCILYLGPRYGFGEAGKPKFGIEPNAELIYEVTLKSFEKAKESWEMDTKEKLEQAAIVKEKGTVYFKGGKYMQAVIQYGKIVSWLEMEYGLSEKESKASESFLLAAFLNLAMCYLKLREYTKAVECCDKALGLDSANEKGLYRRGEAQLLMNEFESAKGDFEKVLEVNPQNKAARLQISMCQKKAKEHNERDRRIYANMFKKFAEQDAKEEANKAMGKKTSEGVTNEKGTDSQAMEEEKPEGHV

[2] = target: 441-residue human 2N4R tau (human, UniProt P10636-8 1-441); assay: NMR titration

- binding result [1]: binds
B1: truncated p23 (1-119) (domain or fragment)
chain: MQPASAKWYDRRDYVFIEFCVEDSKDVNVNFEKSKLTFSCLGGSDNFKHLNEIDLFHCIDPNDSKHKRTDRSILCCLRKGESGQSWPRLTKERAKLNWLSVDFNNWKDWEDDSDEDMSN

- binding result [2]: binds
B2: p23 (human, wild type) (natural protein)
chain: MQPASAKWYDRRDYVFIEFCVEDSKDVNVNFEKSKLTFSCLGGSDNFKHLNEIDLFHCIDPNDSKHKRTDRSILCCLRKGESGQSWPRLTKERAKLNWLSVDFNNWKDWEDDSDEDMSNFDRFSEMMNNMGGDEDVDLPEVDGADDDSQDSDDEKMPDLE
